Assay results: patent US20170015749A1 (NATIONAL RESEARCH COUNCIL OF CANADA, published 2017)
Numbering of substitutions follows the chain as printed.

B1: IGF1R-3_H4 (VHH)
VHH: QVQLVESGGGLVQPGGSLRLSCAASEYPSNFYAMSWFRQAPGKEREFVAGVSRDGLTTLYADSVKGRFTMSRDNSKNTVYLQMNSLRAEDTAVYYCAIVITGVWNKVDVNSRSYHYWGQGTLVTVSS
notes: Humanized variant of IGF1R-3, monomeric VHH; not shown: C-terminal tag from expression vector pSJF2H (protein purified by IMAC)
B2: IGF1R-3_H1 (VHH)
VHH: B1 VHH with Q1E, F37V, E44G, R45L, F47W, A49S, M70I, V79L
notes: as for B1
B3: IGF1R-3 VHH (VHH)
VHH: B1 VHH with Q3K, V5E, P14A, A23V, S75A, Y80D, L86V, R87K, L122Q
notes: Llama VHH expressed in E. coli TG1 from pSJF2H and tested as monomer; also called anti-IGF1R VHH IGF1R-3; IGF1R VHH; not shown: C-terminal tag from expression vector pSJF2H (protein purified by IMAC)
B4: IGF1R-3_H2 (VHH)
VHH: B1 VHH with F37V, E44G, R45L, F47W
notes: as for B1
B5: IGF1R-3_H5 (VHH)
VHH: B1 VHH with Q1E, A49S, M70I, V79L
notes: as for B1

What follows are binders tested against T1, recombinant extracellular portion of human IGF1R (IGF1R^933-His) (human, UniProt P08069 31-933) (assay: SPR, Biacore 3000, human IGF1R immobilized on CM5, VHH as analyte, 1:1 model).
T1 construct: It contains a furin cleavage site (RKRR) between the alpha and beta subunits, so the secreted protein may be two disulphide-linked chains; Immobilized by amine coupling on a CM5 chip; also called recombinant human IGF1R; human IGF1R fragment; not shown: His tag from vector pCDN4/myc-His
Experimental: (§1) Approximately 3000 Resonance Units (RU) of recombinant human IGF1R were immobilized on a Sensor chip CM5. Immobilization was carried out at a concentration of 10 μg/ml in 10 mM acetate at pH4.0 using the amine coupling kit supplied by the manufacturer. The remaining binding sites were blocked with 1 M ethanolamine pH 8.5. An ethanolamine blocked surface was used as a reference surface. For the binding studies, analyses were carried out at 25° C. in 10 mM HEPES, pH7.4 containing 150 mM NaCl, 3 mM EDTA and 0.005% surfactant P20 (Polyoxyethylenesorbitan; GE Healthcare). […] Surfaces were regenerated with 10 mM glycine pH 2.0 with a contact time of 24 seconds. Data were analyzed with BIAevaluation 4.1 software (GE Healthcare).

Binder | Kd | koff
B1 | 1.4 nM | 0.00055 s⁻¹
B2 | 47 nM | 0.0023 s⁻¹
B3 | 1.3 nM | 0.00013 s⁻¹
B4 | 6.6 nM | 0.00072 s⁻¹
B5 | 7.5 nM | 0.0025 s⁻¹

Each binder was assayed against T2, recombinant human Insulin Receptor (R&D systems) (human, UniProt P06213-2 28-944, limits assumed) (assay: SPR, IGF1R-3 VHH (1 nM per text) injected over immobilised human Insulin Receptor surface (curve without asterisk)).
T2 construct: extracellular domain; Immobilized on a CM5 chip at about 4000 RU; also called IR; recombinant extracellular portion of the human Insulin Receptor
T2 sequence (P06213 other isoform, or with tags, fused parts or gaps limits assumed): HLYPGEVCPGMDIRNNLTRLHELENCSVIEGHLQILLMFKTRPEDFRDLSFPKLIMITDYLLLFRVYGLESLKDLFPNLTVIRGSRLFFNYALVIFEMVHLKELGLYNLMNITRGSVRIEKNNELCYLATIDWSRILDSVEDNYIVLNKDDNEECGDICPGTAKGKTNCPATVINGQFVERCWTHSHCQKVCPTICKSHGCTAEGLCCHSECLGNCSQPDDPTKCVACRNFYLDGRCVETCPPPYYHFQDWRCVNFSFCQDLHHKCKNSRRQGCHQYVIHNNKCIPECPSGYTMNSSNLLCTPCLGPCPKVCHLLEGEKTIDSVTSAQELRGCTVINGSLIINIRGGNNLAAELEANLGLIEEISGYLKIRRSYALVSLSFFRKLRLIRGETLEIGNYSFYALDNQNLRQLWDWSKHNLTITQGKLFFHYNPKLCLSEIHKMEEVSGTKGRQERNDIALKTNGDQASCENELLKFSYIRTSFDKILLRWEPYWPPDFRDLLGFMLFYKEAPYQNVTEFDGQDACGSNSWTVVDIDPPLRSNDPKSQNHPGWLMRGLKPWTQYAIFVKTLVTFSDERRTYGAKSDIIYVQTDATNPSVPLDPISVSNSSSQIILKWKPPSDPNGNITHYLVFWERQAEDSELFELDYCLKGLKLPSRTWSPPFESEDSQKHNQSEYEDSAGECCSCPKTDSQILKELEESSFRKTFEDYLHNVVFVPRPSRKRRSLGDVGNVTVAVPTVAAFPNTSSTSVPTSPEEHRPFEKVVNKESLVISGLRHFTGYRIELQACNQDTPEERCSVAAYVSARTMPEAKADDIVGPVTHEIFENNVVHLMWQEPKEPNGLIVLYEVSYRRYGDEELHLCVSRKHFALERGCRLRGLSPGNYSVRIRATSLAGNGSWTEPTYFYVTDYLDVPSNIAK
Experimental: as §1

Binder | binding result
B3 | no binding (tested: 1 nM)
